B1: Inner nuclear membrane protein HEH2 (Saccharomyces cerevisiae), Q03281 (parent)
chain: MDHRNLDPKTLKVSQLRRVLVENDVAFPANARKPVLVKLFEEKVRQRLQSSPEASKVRTSIQKVVKSGAKNADRKKTLKSKKLESSSSESKTVKDENVETNKRKREQISTDNEAKMQIQEEKSPKKKRKKRSSKANKPPESPPQSKSDGKATSADLTSELETVEELHKKDSSDDKPRVKELPKPELPNLKVSNEFLAQLNKELASAATENYDHSIKSTDLSSIRIETEEPVGPSTGAETRNESEVMENINLEVQPEVKEAKEELTKISETFDNQDEEDTSRLSSKKNIRSPKGRTRHFIANKTKRGIDIMKPFIAHLFIWLWNGAIFLSIICPILFGLWYREQRIQVGYCGHEKPLKSLAISAFPQTERVDSVLQAYRPNCLECPEHGICSSFMNVECEPGYEPKSSILETYGIIPFPKYCAKDESKEKEVDELVWKVNEYLKKKNAQHECGEGENLFESGETETKLYDIFSHSRPSWESQREFNDHWKNVLEILKKKDDIIWLPLDFETNGKREKSKSNNTNYIYRSTSKKWVTLQCHLEGDIQEYITKYGGSLFITLGVLFLIKKIQSTLDNYVQGEQIIEKLVKEAIDKLKDVKKNKGEEPFLTTVQLRATLLSDIPNIKEQNNLWAQTKEKIMKEQSENIELYLLEENGEIMTCWEWKE
B2: Inner nuclear membrane protein SRC1 (Saccharomyces cerevisiae), Q03707 (parent)
chain: MNSDLEYLEDGFDPNSMKVATLRRILVENNVDFPSNARKNALVGLFDEKVKPQIPQLRKMYLNVRPSDEGIVKMDRPSSSPSIASPRRSRRARREKSASPMAKQFKKNRILDDVSNDDDDDDDDDDDNDKKDDPLIVPSGTDTDEVDDEEDDVITSSSNKSDTNDFQQNSDTRKKRKDPDSDDWSESNSKENKIDNKHLNLLSSDSEIEQDYQKAKKRKTSDLNQEHGNGSAILGKLSVKTPIKNTNRKPVSMDNFNDSLTSSGTENDPFVPNIRHNPKELGTANGTGHSTPLSKLKVSASFADKLPQKEVPSTILVPEVEQQEPSQSERTPSLFSSEGSGSESEAPLLPEITTPGPHQPMGNTSNNVVEMIDTDSSNLVSDEDEVLVPTRIETPQLPTEKDVEKCEARVQELQEEVNEQLEHENGSEFDVKQGSGKVGNRHKFKRALKFLSKSLLALFLFCIFIVIPLLFGLWYREQRLLIGYCGHEVPSHRVSGNSFEFIQKLDNLLQDYRPKCIPCPPNGICYPYLKLKCKPDYKLAPSRLDFLEIIPAQGKCVKDDKKQQLVSEVVEKSLEFLRAKNAQISCGDGKDDIESGMTEDALYQIFNEARAPWIRDDEFEDLWIQVIKDLTEEPEILWRQLSPTDNNIGGNSNNIIKTNDVPRQKRHLPEKFISKTRNFRSTSKKYIGMKCRFEREIYQTYKKFQRPIWLMFLLIVISKVIEIKLKNYYRKKARIEELVTQTMEKLKFQKIKSMSDPKENAYLSIVQLRDIFLSDIVDLKYKNQLWSEVVKYLEHNNSNIKSNLTEIRGEIMKCWEWIGPMELNEPKDSAENKI

Variants of: B1
Details: with ima1_yeast SRP1, Q02821
Sequence of ima1_yeast SRP1, Q02821 (Q02821 whole entry): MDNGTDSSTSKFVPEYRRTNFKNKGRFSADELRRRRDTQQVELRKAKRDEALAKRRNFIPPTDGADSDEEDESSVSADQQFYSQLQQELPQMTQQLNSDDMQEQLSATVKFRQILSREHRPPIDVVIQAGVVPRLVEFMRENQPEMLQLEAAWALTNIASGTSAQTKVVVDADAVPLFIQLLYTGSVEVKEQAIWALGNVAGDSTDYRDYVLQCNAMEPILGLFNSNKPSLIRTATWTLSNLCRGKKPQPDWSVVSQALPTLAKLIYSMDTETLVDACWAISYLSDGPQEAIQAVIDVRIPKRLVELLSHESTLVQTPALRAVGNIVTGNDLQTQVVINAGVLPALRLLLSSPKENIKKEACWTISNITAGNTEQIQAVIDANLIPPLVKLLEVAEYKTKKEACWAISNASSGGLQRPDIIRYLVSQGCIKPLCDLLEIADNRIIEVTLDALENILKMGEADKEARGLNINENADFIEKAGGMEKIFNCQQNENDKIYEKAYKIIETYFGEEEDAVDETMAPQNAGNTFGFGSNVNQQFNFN

effect of a mutation on the interaction | Variant
decreasing interaction strength | R103A;K126A
decreasing interaction strength | K126A
decreasing interaction strength | R103A

Variants of: B2
Details: with ima1_yeast SRP1, Q02821

effect of a mutation on the interaction | Variant
decreasing interaction strength | R176A;K190A
decreasing interaction strength | R176A

Variants of: B2
Details: with ima1_yeast SRP1, Q02821
Remark: another data set of the same source

effect of a mutation on the interaction | Variant
decreasing interaction strength | K190A

Source: IntAct's records for PubMed 26051712
